Experimental data from patent publication US20230174596A1 (published 2023).
Changes are numbered by the printed parent chain. In names and notes the source's numbering stands.

T1: hVEGF-A K48A (human, UniProt P15692 34-135)
T1 chain: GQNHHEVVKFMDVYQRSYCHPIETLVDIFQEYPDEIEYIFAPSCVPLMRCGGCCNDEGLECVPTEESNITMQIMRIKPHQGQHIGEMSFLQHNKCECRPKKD

T2: hVEGF-A Q89A (human, UniProt P15692 34-135)
T2 chain: T1 chain with A41K, Q82A

T3: hVEGF-A Y21A (human, UniProt P15692 34-135)
T3 chain: T1 chain with Y14A, A41K

T4: human VEGF-A (human, UniProt P15692-4 34-135, limits assumed)
T4 sequence (looked up): T1 chain with A41K

T5: mVEGF (mouse, UniProt Q00731-2 27-190, limits assumed)
T5 sequence (looked up): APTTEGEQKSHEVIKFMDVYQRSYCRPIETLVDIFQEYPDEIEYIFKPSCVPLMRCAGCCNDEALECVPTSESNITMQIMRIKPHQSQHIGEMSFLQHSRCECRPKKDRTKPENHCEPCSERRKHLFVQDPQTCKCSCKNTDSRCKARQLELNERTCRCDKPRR

T6: rat VEGF-A (rat, UniProt P16612-2 27-190, limits assumed)
T6 sequence (looked up): T5 sequence (looked up) with S10A, I14V, I75V

T7: hVEGF-A (8-109) (human, UniProt P15692 214-315)
T7 construct: residue numbers count on mature VEGF-A; dimer
T7 sequence (looked up): T1 chain with A41K

T8: human VEGF-A (human), P15692
T8 chain: T1 chain with A41K


Molecular target: T1, hVEGF-A K48A
Experiment: SPR
Conditions: not given
GCDVMQPYWGCKQDSDCLAGCVCHWYNSCG (designed binder, also called EM63) [VEGF_CKP9.63] showed a Kd of 0.0284 µM. GCDVMQPYWGCGPDIDCLAGCVCHWYNSCG (designed binder, also called L2.9.63.12) [VEGF_CKP9.63.12] showed a Kd of 0.00033 µM. In the case of GCNIMLPFWGCGRDFECLAGCVCQYYQSCG (designed binder) [VEGF_CKP9.54.90], the Kd is reported as 0.00019 µM. In the case of GCNIMLPFWGCKQDSDCLAGCVCQYYQSCG (designed binder, also called EM54) [VEGF_CKP9.54], the Kd is reported as 0.022 µM.

Molecular target: T2, hVEGF-A Q89A
Experiment: SPR
Conditions: not given
GCDVMQPYWGCKQDSDCLAGCVCHWYNSCG (designed binder, also called EM63) [VEGF_CKP9.63] showed a Kd of 2 µM. GCDVMQPYWGCGPDIDCLAGCVCHWYNSCG (designed binder, also called L2.9.63.12) [VEGF_CKP9.63.12] gave a Kd of 0.0365 µM. With GCNIMLPFWGCGRDFECLAGCVCQYYQSCG (designed binder) [VEGF_CKP9.54.90] the Kd was 0.0088 µM. In the case of GCNIMLPFWGCKQDSDCLAGCVCQYYQSCG (designed binder, also called EM54) [VEGF_CKP9.54], the Kd is reported as 1.88 µM.

Molecular target: T3, hVEGF-A Y21A
Experiment: SPR
Conditions: not given
With GCDVMQPYWGCKQDSDCLAGCVCHWYNSCG (designed binder, also called EM63) [VEGF_CKP9.63] the Kd was 0.585 µM. In the case of GCDVMQPYWGCGPDIDCLAGCVCHWYNSCG (designed binder, also called L2.9.63.12) [VEGF_CKP9.63.12], the Kd is reported as 0.00984 µM. For GCNIMLPFWGCGRDFECLAGCVCQYYQSCG (designed binder) [VEGF_CKP9.54.90], the Kd was 0.0035 µM. In the case of GCNIMLPFWGCKQDSDCLAGCVCQYYQSCG (designed binder, also called EM54) [VEGF_CKP9.54], the Kd is reported as 0.317 µM.

Each binder was assayed against T4, human VEGF-A (assay: cell-based or functional assay). Conditions: not given.
For GCNIMLPFWGCGRDFECFINCICQYYQSCG (designed binder) [VEGF_CKP9.54.90.44], the Cellular IC50 was 0.00116 µM and the fold improvement relative to variant 9.54.90 (cellular IC50) was 1.16 fold. GCNIMLPFWGCGRDFECFYECICQYYQSCG (designed binder) [VEGF_CKP9.54.90.62] was tested, and the Cellular IC50 was 0.00092 µM and the fold improvement relative to variant 9.54.90 (cellular IC50) was 1.47 fold. GCNIMLPFWGCGRDFECMEQCICQYYQSCG (designed binder) [VEGF_CKP9.54.90.67] showed a Cellular IC50 of 0.0011 µM and a fold improvement relative to variant 9.54.90 (cellular IC50) of 1.23 fold. In the case of GCDVMQPYWGCGPDIDCLSNCICHWYNSCG (designed binder) [VEGF_CKP9.63.12.12], the Cellular IC50 is reported as 0.00056 µM and the fold improvement relative to variant 9.54.90 (cellular IC50) is reported as 2.41 fold. With CNIMLPYWGCGRDFECLAGCVCQYYQSC (designed binder) [VEGF_CKP9.54.90 F7Y Δ2G] the Cellular IC50 was 0.00301 µM and the fold improvement relative to variant 9.54.90 (cellular IC50) was 0.44 fold. GCNIMLPYWGCGRDFECMNQCICQYYQSCG (designed binder) [VEGF_CKP9.54.90.13.F8Y] was tested, and the Cellular IC50 was 0.00202 µM and the fold improvement relative to variant 9.54.90 (cellular IC50) was 0.67 fold. For GCNIMLPYWGCGRDFECFYECICQYYQSCG (designed binder) [VEGF_CKP9.54.90.62.F8Y], the Cellular IC50 was 0.00114 µM and the fold improvement relative to variant 9.54.90 (cellular IC50) was 1.18 fold. For GCQLMQPFWGCKQDSDCLAGCVCHWYQSCG (designed binder) [VEGF_CKP9], the “Cellular Assay IC50, hVEGF-A (25 ng/ml)” value was 12 µM. In the case of GCPTTRFKQYCKQDSDCLAGCVCGPNGFCG (designed binder) [VEGF_CKP6], the “Cellular Assay IC50, hVEGF-A (25 ng/ml)” value is reported as 47 µM. With GCQDPTFNWALYCKQDSDCLAGCVCQMYQSCG (designed binder) [VEGF_CKP7] the “Cellular Assay IC50, hVEGF-A (25 ng/ml)” value was 18 µM. With GCRDLDVKWDCKQDSDCLAGCFCQYYSSCG (designed binder) [VEGF_CKP10] the “Cellular Assay IC50, hVEGF-A (25 ng/ml)” value was 45 µM. GCTTPWPPHEIMCKQDSDCLAGCVCGPNGFCG (designed binder) [VEGF_CKP12] was tested, and the “Cellular Assay IC50, hVEGF-A (25 ng/ml)” value was 102 µM.

Same assay, conditions: record 2
Work on GCNIMLPFWGCGRDFECMEQCICQYYQSCG (designed binder) [VEGF_CKP9.54.90.67] yielded a Cellular IC50 of 0.001 µM. For GCDVMQPYWGCGPDIDCLSNCICHWYNSCG (designed binder) [VEGF_CKP9.63.12.12], the Cellular IC50 was 0.0005 µM.

Each binder was assayed against T5, mVEGF (assay: cell-based or functional assay). Conditions: not given.
With GCQLMQPFWGCKQDSDCLAGCVCHWYQSCG (designed binder) [VEGF_CKP9] the “Cellular Assay IC50, mVEGF (50 ng/ml)” value was 10 µM. For GCPTTRFKQYCKQDSDCLAGCVCGPNGFCG (designed binder) [VEGF_CKP6], the “Cellular Assay IC50, mVEGF (50 ng/ml)” value was 169 µM. For GCQDPTFNWALYCKQDSDCLAGCVCQMYQSCG (designed binder) [VEGF_CKP7], the “Cellular Assay IC50, mVEGF (50 ng/ml)” value was 39 µM. With GCTTPWPPHEIMCKQDSDCLAGCVCGPNGFCG (designed binder) [VEGF_CKP12] the “Cellular Assay IC50, mVEGF (50 ng/ml)” value was 243 µM.

These binders were tested against T6, rat VEGF-A (assay: cell-based or functional assay). Conditions: not given.
GCQLMQPFWGCKQDSDCLAGCVCHWYQSCG (designed binder) [VEGF_CKP9] was tested, and the “Cellular Assay IC50, rVEGF (50 ng/ml)” value was 1 µM. With GCPTTRFKQYCKQDSDCLAGCVCGPNGFCG (designed binder) [VEGF_CKP6] the “Cellular Assay IC50, rVEGF (50 ng/ml)” value was 711 µM. GCQDPTFNWALYCKQDSDCLAGCVCQMYQSCG (designed binder) [VEGF_CKP7] was tested, and the “Cellular Assay IC50, rVEGF (50 ng/ml)” value was 7 µM. For GCRDLDVKWDCKQDSDCLAGCFCQYYSSCG (designed binder) [VEGF_CKP10], the “Cellular Assay IC50, rVEGF (50 ng/ml)” value was 18 µM. For GCTTPWPPHEIMCKQDSDCLAGCVCGPNGFCG (designed binder) [VEGF_CKP12], the “Cellular Assay IC50, rVEGF (50 ng/ml)” value was 1220 µM.

What follows are binders tested against T7, hVEGF-A (8-109) (assay: spot phage ELISA). Conditions: not given.
For GCQLMQPFWGCKQDSDCLAGCVCHWYQSCG (designed binder) [VEGF_CKP9], the ELISA was 0.4 and the S/N was 7.4. In the case of GCPTTRFKQYCKQDSDCLAGCVCGPNGFCG (designed binder) [VEGF_CKP6], the ELISA is reported as 3.5 and the S/N is reported as 51.9. GCQDPTFNWALYCKQDSDCLAGCVCQMYQSCG (designed binder) [VEGF_CKP7] was tested, and the ELISA was 3.4 and the S/N was 54.5. Work on GCRDLDVKWDCKQDSDCLAGCFCQYYSSCG (designed binder) [VEGF_CKP10] yielded an ELISA of 3.2 and a S/N of 43.7. Binder GCTTPWPPHEIMCKQDSDCLAGCVCGPNGFCG (designed binder) [VEGF_CKP12] has an ELISA of 3.5 and a S/N of 55.2.

Same assay, conditions: record 2
With GCQLMQPFWGCKQDSDCLAGCVCHWYQSCG (designed binder) [VEGF_CKP9] the ELISA was 0.9 and the S/N was 11.6. GCQDPTFNWALYCKQDSDCLAGCVCQMYQSCG (designed binder) [VEGF_CKP7] showed an ELISA of 0.1 and a S/N of 1.3.

Same assay, conditions: record 3
Binder GCQLMQPFWGCKQDSDCLAGCVCHWYQSCG (designed binder) [VEGF_CKP9] has an ELISA of 3.3 and a S/N of 36.

Molecular target: T8, human VEGF-A (human), P15692
Experiment: SPR
Conditions: not given
For GCNIMLPFWGCGRDFECLAGCVCQYYQSCG (designed binder, modifications not checked) [VEGF_CKP9.54.90-Alkyn], the Kd was 0.00049 µM.

What follows are binders tested against T7, hVEGF-A (8-109) (assay: SPR). Conditions: not given.
Work on GCDVMQPYWGCEMDFDCLAGCVCHWYNSCG (designed binder, also called L2.9.63.44) [VEGF_CKP9.63.44] yielded a Kd of 0.0012 µM. In the case of GCDVMQPYWGCGENFLCLAGCVCHWYNSCG (designed binder, also called L2.9.63.1) [VEGF_CKP9.63.1], the Kd is reported as 0.0058 µM. GCDVMQPYWGCGESLSCLAGCVCHWYNSCG (designed binder, also called L2.9.63.69) [VEGF_CKP9.63.69] gave a Kd of 0.0069 µM. With GCDVMQPYWGCGRDMDCLAGCVCHWYNSCG (designed binder, also called L2.9.63.27) [VEGF_CKP9.63.27] the Kd was 0.0014 µM.
